Test results reported in patent publication US20250145684A1 (IMMATICS BIOTECHNOLOGIES, published 2025).

What follows are binders tested against T1, HLA-B*08:01 (human) (assay: UV peptide exchange ELISA).
T1 construct: MHC monomer first loaded with a UV-sensitive peptide that is cleaved by UV light and exchanged for the test peptide
Description: Candidate peptides for T cell based therapies according to the present invention were further tested for their MHC binding capacity (affinity). The individual peptide-MHC complexes were produced by UV-ligand exchange, where a UV-sensitive peptide is cleaved upon UV-irradiation and exchanged with the peptide of interest as analyzed. Only peptide candidates that can effectively bind and stabilize the peptide-receptive MHC molecules prevent dissociation of the MHC complexes. To determine the yield of the exchange reaction, an ELISA was performed based on the detection of the light chain (β2m) of stabilized MHC complexes. The assay was performed as generally described in Rodenko et al. (Rodenko et al., 2006).
96 well MAXISorp plates (NUNC) were coated over night with 2 ug/ml streptavidin in PBS at room temperature, washed 4× and blocked for 1 h at 37° C. in 2% BSA containing blocking buffer. Refolded HLA-A*02:01/MLA-001 monomers served as standards, covering the range of 15-500 ng/ml. Peptide-MHC monomers of the UV-exchange reaction were diluted 100-fold in blocking buffer. Samples were incubated for 1 h at 37° C., washed four times, incubated with 2 ug/ml HRP conjugated anti-β2m for 1 h at 37° C., washed again and detected with TMB solution that is stopped with […]. Absorption was measured at 450 nm. Candidate peptides that show a high exchange yield (preferably higher than 50%, most preferred higher than 75%) are generally preferred for a generation and production of antibodies or fragments thereof, and/or T cell receptors or fragments thereof, as they show sufficient avidity to the MHC molecules and prevent dissociation of the MHC complexes.

Binder | peptide exchange yield [%]
IPRLAVISI [IPRLAVISI (SEQ ID NO: 178)] | 20 to 50
EGNQKSVI [EGNQKSVI (SEQ ID NO: 195)] | 20 to 50
LAVPIFVAL [LAVPIFVAL (SEQ ID NO: 180)] | 20 to 50
EIMEKTTL [EIMEKTTL (SEQ ID NO: 188)] | 20 to 50
HAMPSPRIL [HAMPSPRIL (SEQ ID NO: 174)] | 20 to 50
LGGLRLTAL [LGGLRLTAL (SEQ ID NO: 193)] | 20 to 50
APDNVLLTL [APDNVLLTL (SEQ ID NO: 189)] | 20 to 50
ELLNRIYF [ELLNRIYF (SEQ ID NO: 190)] | 20 to 50
ILHLSAIAL [ILHLSAIAL (SEQ ID NO: 182)] | ≥ 75
FPSQVPKQVL [FPSQVPKQVL (SEQ ID NO: 171)] | 20 to 50
DLISPRQPRL [DLISPRQPRL (SEQ ID NO: 186)] | 20 to 50
HVQDFTAF [HVQDFTAF (SEQ ID NO: 168)] | 20 to 50
FPLTSIIAI [FPLTSIIAI (SEQ ID NO: 198)] | 50 to 75
LDLRQKVL [LDLRQKVL (SEQ ID NO: 196)] | 20 to 50
LFKQTKINL [LFKQTKINL (SEQ ID NO: 162)] | 20 to 50
DRLKPLKM [DRLKPLKM (SEQ ID NO: 184)] | 20 to 50
EEKHFTTL [EEKHFTTL (SEQ ID NO: 192)] | 20 to 50
DVYTQVSAF [DVYTQVSAF (SEQ ID NO: 203)] | 20 to 50
IPFIHLPEI [IPFIHLPEI (SEQ ID NO: 199)] | 20 to 50
DMKITVSL [DMKITVSL (SEQ ID NO: 167)] | 50 to 75
LLILKTVL [LLILKTVL (SEQ ID NO: 17)] | 50 to 75
LPAPIPTLL [LPAPIPTLL (SEQ ID NO: 164)] | 20 to 50
FTLLRRLSL [FTLLRRLSL (SEQ ID NO: 19)] | 50 to 75
ILKRFLAC [ILKRFLAC (SEQ ID NO: 20)] | 50 to 75
EVMAQFKEI [EVMAQFKEI (SEQ ID NO: 163)] | 20 to 50

The next lines start with the values.

peptide exchange yield [%] | Binder
50 to 75 | RAIEHVLQV [RAIEHVLQV (SEQ ID NO: 194)]
20 to 50 | PYEKVSRL [PYEKVSRL (SEQ ID NO: 172)]
50 to 75 | QIMPKAGL [QIMPKAGL (SEQ ID NO: 2)]
50 to 75 | YPLLKDPSL [YPLLKDPSL (SEQ ID NO: 173)]
20 to 50 | RPLKPGEVL [RPLKPGEVL (SEQ ID NO: 191)]
20 to 50 | MEFPNKFNTL [MEFPNKFNTL (SEQ ID NO: 206)]
20 to 50 | QNSLRHNL [QNSLRHNL (SEQ ID NO: 165)]
20 to 50 | LRKRKSPE [LRKRKSPE (SEQ ID NO: 207)]
20 to 50 | SRFGKFVQL [SRFGKFVQL (SEQ ID NO: 209)]
20 to 50 | YELNNLHAL [YELNNLHAL (SEQ ID NO: 169)]
10 to 20 | MRFQQFLFA [MRFQQFLFA (SEQ ID NO: 175)]
20 to 50 | QPNTHQLL [QPNTHQLL (SEQ ID NO: 210)]
50 to 75 | LPLTEHEL [LPLTEHEL (SEQ ID NO: 179)]
20 to 50 | SIRSSYSRF [SIRSSYSRF (SEQ ID NO: 181)]
20 to 50 | YVSKPGAQL [YVSKPGAQL (SEQ ID NO: 183)]
20 to 50 | YMQYGFLSM [YMQYGFLSM (SEQ ID NO: 205)]
20 to 50 | LPPPQPLSL [LPPPQPLSL (SEQ ID NO: 208)]
20 to 50 | YKAYPSQL [YKAYPSQL (SEQ ID NO: 197)]
20 to 50 | SPANVRGQSL [SPANVRGQSL (SEQ ID NO: 170)]
20 to 50 | MELKTVKPI [MELKTVKPI (SEQ ID NO: 185)]
20 to 50 | MSPLLRSI [MSPLLRSI (SEQ ID NO: 204)]
50 to 75 | LSLVRKAL [LSLVRKAL (SEQ ID NO: 18)]
50 to 75 | TASAMQHVL [TASAMQHVL (SEQ ID NO: 201)]
20 to 50 | VLSGGRILAL [VLSGGRILAL (SEQ ID NO: 166)]
20 to 50 | RIPEKASFL [RIPEKASFL (SEQ ID NO: 202)]
20 to 50 | SVPVRSSPL [SVPVRSSPL (SEQ ID NO: 177)]
20 to 50 | YVIQRQSVL [YVIQRQSVL (SEQ ID NO: 176)]
20 to 50 | VAAARAVPV [VAAARAVPV (SEQ ID NO: 200)]
20 to 50 | VPYNSVLF [VPYNSVLF (SEQ ID NO: 187)]
